Source: publication PMC1435831
Read-outs that look alike come from different tables or passages of the source.

Experiments:
[1] = target: His-tagged SmpB protein (small protein B), wild type (E. coli) (UniProt P0A832); assay: SPR
[2] = target: His-tagged SmpB protein (small protein B), wild type (E. coli) (UniProt P0A832); assay: SPR; remark: listed apart in the source

Sequence of UniProt P0A832 (P0A832 whole entry): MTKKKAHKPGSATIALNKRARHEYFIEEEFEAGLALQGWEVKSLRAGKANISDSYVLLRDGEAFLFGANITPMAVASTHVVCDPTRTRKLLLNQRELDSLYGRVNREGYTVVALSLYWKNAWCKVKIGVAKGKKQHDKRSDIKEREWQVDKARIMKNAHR

Row | Substance | Kd [1] | Kd [2]
1 | 70S ribosome (complex) | 7.3 nM | 
2 | 50S ribosomal subunit (complex) | 4.8 nM | 0.17 nM
3 | 30S ribosomal subunit (complex) | 4.4 nM | 0.17 nM
